Among the data in patent publication US20170298124A1, “ANTIBODIES AGAINST PATHOLOGICAL FORMS OF TDP-43 AND USES THEREOF” (Academia Sinica, published 2017) are Kd values, retold here.

Data set [1] addresses TDP-43 full-length (oligomers) (Homo sapiens, UniProt Q13148 Q13148:1-414). Put plainly: intrinsic fluorescence titration (ex 280, em 350 nm), 1.5 uM protein, 30 mM Tris-HCl pH 8; residual binding may come from minor monomer population. The note with it: chain copies: oligomer (stated); 1:1 stoichiometry of TDP-43 and ssDNA from fit.
Data set [2] has as its target TDP-43s short-form TDP-43 (RRM1-RRM2) (Mus musculus, UniProt Q921F2 Q921F2:101-265). Nature of the data set: intrinsic fluorescence titration (ex 280, em 350 nm), 1.5 uM protein, 30 mM Tris-HCl pH 8. The note with it: tags: prepared per Kuo et al 2009.

Chain of TDP-43 full-length (oligomers) (Q13148 whole entry, one chain of several): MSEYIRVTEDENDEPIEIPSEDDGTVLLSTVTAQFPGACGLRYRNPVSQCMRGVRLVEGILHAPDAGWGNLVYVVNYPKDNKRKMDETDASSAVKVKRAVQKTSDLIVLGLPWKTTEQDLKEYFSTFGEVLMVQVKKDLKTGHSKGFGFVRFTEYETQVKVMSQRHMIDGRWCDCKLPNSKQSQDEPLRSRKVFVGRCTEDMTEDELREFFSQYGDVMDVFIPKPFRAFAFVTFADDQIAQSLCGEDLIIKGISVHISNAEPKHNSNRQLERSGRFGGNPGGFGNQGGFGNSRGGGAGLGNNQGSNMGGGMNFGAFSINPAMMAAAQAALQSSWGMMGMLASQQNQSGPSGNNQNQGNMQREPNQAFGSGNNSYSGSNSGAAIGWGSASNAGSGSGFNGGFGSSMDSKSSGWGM

B1: TAR DNA B-site (ssDNA)
DNA: TGGGTCTCTCTG
As to B1, the Kd in data set [1] was 6.27 µM; in data set [2] it was 0.38 µM.

B2: TAR DNA A-site (ssDNA)
DNA: CTTTTTGCCTGT
Turning to B2, the values for the Kd in data set [1] and in data set [2] were 7.05 µM and 0.2 µM, respectively.

Usually Kd stands for the concentration at which binding is half-saturated. A higher Kd goes with lower affinity.
